What was measured:
[1] = target: T1, human KLK5 (hKLK5), active form (human, UniProt Q9Y337 67-293); experiment: cell-based or functional assay
[2] = target: mouse KLK5 (mKLK5) (mouse); experiment: cell-based or functional assay
[3] = target: T2, mouse KLK5 (mKLK5) (mouse); experiment: Biacore SPR, antibody captured on Protein A chip, single-cycle kinetics, 25 C
T2 construct: Enzymatically active in the protease assay
Protocol: (§1) All screening assays were performed at 25 C. The running buffer used was 20 mM HEPES, 300 mM NaCl, 0.01% Tween-20, pH 7.5. Antibodies (1 ug/mL) were captured on Fc2-4 of a Series S ProteinA Sensor Chip (Cytiva) flowing at 10 ul/mL for 30 s. Kinetics measurements were made in single-cycle kinetics mode with a series of 4-5 concentrations with top concentration of 25-100 nM and serial dilution 4-fold. Contact time was typically 300 s and dissociation time ranged from 1800-3600 s. Flow rate of 30 ul/mL was typically used. The sensor chip was regenerated with 10 mM glycine, pH 1.5 with a contact time of 30 s flowing at 50 ul/mL.

[4] = target: T1, human KLK5 (hKLK5), active form; experiment: as above
Protocol: as §1

[5] = target: T3, mouse KLK7 (mKLK7) (mouse, UniProt Q91VE3 26-249); experiment: as above
T3 construct: Enzymatically active in the protease assay
Protocol: as §1

[6] = target: T4, human KLK7 (hKLK7), active form (human, UniProt P49862 30-253); experiment: as above
T4 construct: mature; also called active human KLK7
Protocol: as §1

[7] = target: T3, mouse KLK7 (mKLK7); experiment: cell-based or functional assay
[8] = target: T4, human KLK7 (hKLK7), active form; experiment: cell-based or functional assay

T4 sequence (P49862 30-253): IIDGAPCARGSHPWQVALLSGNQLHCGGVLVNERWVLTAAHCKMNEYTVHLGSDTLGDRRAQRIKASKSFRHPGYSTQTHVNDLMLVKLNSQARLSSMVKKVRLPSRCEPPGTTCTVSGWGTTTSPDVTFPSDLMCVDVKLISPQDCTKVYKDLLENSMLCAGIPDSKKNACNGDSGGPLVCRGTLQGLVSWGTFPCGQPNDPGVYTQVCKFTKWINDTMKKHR
T3 sequence (Q91VE3 26-249 limits assumed): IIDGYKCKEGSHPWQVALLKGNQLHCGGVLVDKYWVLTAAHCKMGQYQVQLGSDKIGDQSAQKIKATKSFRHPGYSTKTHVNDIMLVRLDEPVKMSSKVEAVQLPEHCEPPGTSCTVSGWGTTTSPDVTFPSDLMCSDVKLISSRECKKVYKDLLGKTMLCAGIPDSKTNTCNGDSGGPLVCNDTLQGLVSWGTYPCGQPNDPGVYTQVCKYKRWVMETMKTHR

Binder | hKLK5 IC50 (protease inhibition) [1] | hKLK5 IC90 (protease inhibition) [1] | mKLK5 IC50 (protease inhibition) [2] | mKLK5 IC90 (protease inhibition) [2] | Kd [3] | Kd [4] | Kd [5] | Kd [6] | mKLK7 IC50 (protease inhibition) [7] | mKLK7 IC90 (protease inhibition) [7] | hKLK7 IC50 (protease inhibition) [8] | hKLK7 IC90 (protease inhibition) [8]
KLK5-L1-Ab3 (antibody, V domains shown) VH: EVQLVESGGGLVQPGGSLRLSCAASGFTFEHYSMNWVRQAPGKGLEWVSYISSSSSYIDYADSVKGRFTISRDNAKNSLYLQMNSLRAEDTAVYYCARDLTSMQSRDYYYYGMDVWGQGTTVTVSS VL: DIQMTQSPSSVSASVGDRVTITCRASQGISSWLAWYQQKPGKAPKLLIYAASSLQSGVPSRFSGSGSGTDFTLTISSLQPEDFATYYCQQVPIFPYTFGGGTKVEIK | 1.71 nM | 15 nM | 4.97 nM | 40.1 nM | 0.32 nM | – | – | – | – | – | – | –
KLK5-L1-Ab1 (antibody, V domains shown) VH: EVQLVESGGGLVQPGGSLRLSCAASGFTFSSYSMNWVRQAPGKGLEWVSYISSSSSTIYYADSVKGRFTISRDNAKNSLYLQMNSLRAEDTAVYYCARDLTSMQSRDYYYYGMDVWGQGTTVTVSS VL: DIQMTQSPSSVSASVGDRVTITCRASQGISSWLAWYQQKPGKAPKLLIYAASSLQSGVPSRFSGSGSGTDFTLTISSLQPEDFATYYCQQVPIFPYTFGGGTKVEIK | 3.45 nM | 83.1 nM | 29.4 nM | 103 nM | 4.44 nM | 0.783 nM | – | – | – | – | – | –
KLK5-L1-Ab2 (antibody, V domains shown) VH: EVQLVESGGGLVQPGGSLRLSCAASGFTFGSYAMNWVRQAPGKGLEWVSYISSSSSFIDYADSVKGRFTISRDNAKNSLYLQMNSLRAEDTAVYYCARDLTSMQSRDYYYYGMDVWGQGTTVTVSS VL: DIQMTQSPSSVSASVGDRVTITCRASQGISSWLAWYQQKPGKAPKLLIYAASSLQSGVPSRFSGSGSGTDFTLTISSLQPEDFATYYCQQVPIFPYTFGGGTKVEIK | 2.26 nM | 13.3 nM | 4.43 nM | 34.6 nM | 0.41 nM | – | – | – | – | – | – | –
KLK5-L1-Ab4 (antibody, V domains shown) VH: EVQLVESGGGLVQPGGSLRLSCAASGFTFNDYSMNWVRQAPGKGLEWVSYISSSSSYIDYADSVKGRFTISRDNAKNSLYLQMNSLRAEDTAVYYCARDLTSMQSRDYYYYGMDVWGQGTTVTVSS VL: DIQMTQSPSSVSASVGDRVTITCRASQGISSWLAWYQQKPGKAPKLLIYAASSLQSGVPSRFSGSGSGTDFTLTISSLQPEDFATYYCQQVPIFPYTFGGGTKVEIK | 2.49 nM | 10.6 nM | 9.26 nM | 81.2 nM | 0.66 nM | – | – | – | – | – | – | –
KLK7-L3-Ab1 (antibody, V domains shown) VH: QVQLVQSGAEVKKPGSSVKVSCKASGGTFSNYAISWVRQAPGQGLEWMGGIIPIFGTANYAQKFQGRVTITADESTSTAYMELSSLRSEDTAVYYCARGAPNYYGSSSSRGIAFDIWGQGTMVTVSS VL: DIQMTQSPSSVSASVGDRVTITCRASQGISSWLAWYQQKPGKAPKLLIYAASSLQSGVPSRFSGSGSGTDFTLTISSLQPEDFATYYCVQANAFPYTFGGGTKVEIK | – | – | – | – | – | – | 9.03 nM | 0.0205 nM | 10.9 nM | 212 nM | 0.37 nM | 10.5 nM
KLK7-L4-Ab1 (antibody, V domains shown) VH: QLQLQESGPGLVKPSETLSLTCTVSGGSISSSSYYWGWIRQPPGKGLEWIGSISYSGSTYYNPSLKSRVTISVDTSKNQFSLKLSSVTAADTAVYYCARGAPTYFGAASHYYYYMDVWGKGTTVTVSS VL: not shown | – | – | – | – | – | – | 6 nM | 0.219 nM | 16.3 nM | 118 nM | 0.52 nM | 14.9 nM
KLK5-L2-Ab4 (antibody, V domains shown) VH: QLQLQESGPGLVKPSETLSLTCTVSGGSIPSSSYYWSWIRQPPGKGLEWIGNIYYSGSTYYNPSLKSRVTISVDTSKNQFSLKLSSVTAADTAVYYCARGEYDRSYYYWGLDVWGQGTTVTVSS VL: not shown | 2.04 nM | 9.86 nM | 1.68 nM | 15.6 nM | 0.47 nM | – | – | – | – | – | – | –
KLK5-L2-Ab1 (antibody, V domains shown) VH: QLQLQESGPGLVKPSETLSLTCTVSGGSISSSSYYWGWIRQPPGKGLEWIGSISYSGSTYYNPSLKSRVTISVDTSKNQFSLKLSSVTAADTAVYYCARGEYDRSYYYYGMDVWGQGTTVTVSS VL: not shown | 11 nM | 92.9 nM | 45.9 nM | 93.2 nM | 20.5 nM | 2.53 nM | – | – | – | – | – | –
KLK5-L2-Ab2 (antibody, V domains shown) VH: QLQLQESGPGLVKPSETLSLTCTVSGGSIPSSSYYWAWIRQPPGKGLEWIGNIYYSGSTYYNPSLKSRVTISVDTSKNQFSLKLSSVTAADTAVYYCARGEYDRSALYYGMDVWGQGTTVTVSS VL: not shown | 1.71 nM | 8.46 nM | 2.21 nM | 13.1 nM | 0.44 nM | 0.003 nM | – | – | – | – | – | –
KLK5-L2-Ab3 (antibody, V domains shown) VH: QLQLQESGPGLVKPSETLSLTCTVSGGSIPSSSYYWSWIRQPPGKGLEWIGNIYYSGSTYYNPSLKSRVTISVDTSKNQFSLKLSSVTAADTAVYYCARGEYDRSYYFWGMDVWGQGTTVTVSS VL: not shown | 2.26 nM | 10.2 nM | 1.82 nM | 29.5 nM | 0.59 nM | – | – | – | – | – | – | –
KLK5-L3-Ab2 (antibody, V domains shown) VH: QVQLVQSGAEVKKPGSSVKVSCKASGGTFSGYSISWVRQAPGQGLEWMGLIFPISGTANYAQKFQGRVTITADESTSTAYMELSSLRSEDTAVYYCARGSASGYYDRSYYYYGMDVWGQGTTVTVSS VL: DIQMTQSPSSVSASVGDRVTITCRASQGISSWLAWYQQKPGKAPKLLIYAASSLQSGVPSRFSGSGSGTDFTLTISSLQPEDFATYYCQQVSSFPYTFGGGTKVEIK | 4.45 nM | 24 nM | 15 nM | 91.3 nM | 3.8 nM | – | – | – | – | – | – | –
KLK5-L3-Ab1 (antibody, V domains shown) VH: QVQLVQSGAEVKKPGASVKVSCKASGYTFTGYYMHWVRQAPGQGLEWMGGIIPISGTANYAQKFQGRVTITADESTSTAYMELSSLRSEDTAVYYCARGSASGYYDRSYYYYGMDVWGQGTTVTVSS VL: DIQMTQSPSSVSASVGDRVTITCRASQGISSWLAWYQQKPGKAPKLLIYAASSLQSGVPSRFSGSGSGTDFTLTISSLQPEDFATYYCQQVSSFPYTFGGGTKVEIK | 12.7 nM | 112 nM | 81.3 nM | 130 nM | 16.6 nM | 2.62 nM | – | – | – | – | – | –
KLK5-L3-Ab3 (antibody, V domains shown) VH: QVQLVQSGAEVKKPGSSVKVSCKASGGTFNNYHISWVRQAPGQGLEWMGGIIPPFGTAHYAQKFQGRVTITADESTSTAYMELSSLRSEDTAVYYCARGSASGYYDRSYYYYGMDVWGQGTTVTVSS VL: DIQMTQSPSSVSASVGDRVTITCRASQGISSWLAWYQQKPGKAPKLLIYAASSLQSGVPSRFSGSGSGTDFTLTISSLQPEDFATYYCQQVSSFPYTFGGGTKVEIK | 2.81 nM | 11.1 nM | 14.9 nM | 87 nM | 7.2 nM | – | – | – | – | – | – | –
KLK5-L3-Ab4 (antibody, V domains shown) VH: QVQLVQSGAEVKKPGSSVKVSCKASGGTFNNYHISWVRQAPGQGLEWMGGIIPPFGTAHYAQKFQGRVTITADESTSTAYMELSSLRSEDTAVYYCARGEASGYYDRSYYYYGLDVWGQGTTVTVSS VL: DIQMTQSPSSVSASVGDRVTITCRASQGISSWLAWYQQKPGKAPKLLIYAASSLQSGVPSRFSGSGSGTDFTLTISSLQPEDFATYYCQQVSSFPYTFGGGTKVEIK | 1.76 nM | 9.81 nM | 8.27 nM | 83.2 nM | 8.8 nM | – | – | – | – | – | – | –
KLK5-L3-Ab5 (antibody, V domains shown) VH: QVQLVQSGAEVKKPGSSVKVSCKASGGTFSGYSISWVRQAPGQGLEWMGLIFPISGTANYAQKFQGRVTITADESTSTAYMELSSLRSEDTAVYYCARQSASGYYDRSYYRYGMDVWGQGTTVTVSS VL: DIQMTQSPSSVSASVGDRVTITCRASQGISSWLAWYQQKPGKAPKLLIYAASSLQSGVPSRFSGSGSGTDFTLTISSLQPEDFATYYCQQVSSFPYTFGGGTKVEIK | 2.58 nM | 10.6 nM | 4.44 nM | 28.4 nM | 3.4 nM | – | – | – | – | – | – | –
KLK5-L3-Ab7 (antibody, V domains shown) VH: QVQLVQSGAEVRKPGSSVKVSCKASGGTFSNYHISWVRQAPGQGLEWMGGIFPTFGTANYAQKFQGRVTITADESTSTAYMELSSLRSEDTAVYYCARGSASGYYDRSYYYDGMDVWGQGTTVTVSS VL: DIQMTQSPSSVSASVGDRVTITCRASQGISSWLAWYQQKPGKAPKLLIYAASSLQSGVPSRFSGSGSGTDFTLTISSLQPEDFATYYCQQVISFPYTFGGGTKVEIK | – | – | 2.17 nM | 10.7 nM | 1.4 nM | – | – | – | – | – | – | –
